The values that follow come from publication PMC3573756.

The target in assay [1] is cardiac ryanodine receptor (RyR2) (rat (endogenous in rat ventricular myocytes)) (UniProt B0LPN4). As to the kind of experiment: other fluorescence titration.
The target is the same in assay [2]. As to the kind of experiment: confocal fluorescence wash-in and wash-out kinetics.
Assay [3] has the same target. Briefly: FRET or BRET. Background: Bioluminescence resonance energy transfer reports proximity on the nanometre scale.
Assay [4] has the same target. Briefly: FRET or BRET. The source holds these as a separate data set.

UniProt B0LPN4, sequence (B0LPN4 whole entry): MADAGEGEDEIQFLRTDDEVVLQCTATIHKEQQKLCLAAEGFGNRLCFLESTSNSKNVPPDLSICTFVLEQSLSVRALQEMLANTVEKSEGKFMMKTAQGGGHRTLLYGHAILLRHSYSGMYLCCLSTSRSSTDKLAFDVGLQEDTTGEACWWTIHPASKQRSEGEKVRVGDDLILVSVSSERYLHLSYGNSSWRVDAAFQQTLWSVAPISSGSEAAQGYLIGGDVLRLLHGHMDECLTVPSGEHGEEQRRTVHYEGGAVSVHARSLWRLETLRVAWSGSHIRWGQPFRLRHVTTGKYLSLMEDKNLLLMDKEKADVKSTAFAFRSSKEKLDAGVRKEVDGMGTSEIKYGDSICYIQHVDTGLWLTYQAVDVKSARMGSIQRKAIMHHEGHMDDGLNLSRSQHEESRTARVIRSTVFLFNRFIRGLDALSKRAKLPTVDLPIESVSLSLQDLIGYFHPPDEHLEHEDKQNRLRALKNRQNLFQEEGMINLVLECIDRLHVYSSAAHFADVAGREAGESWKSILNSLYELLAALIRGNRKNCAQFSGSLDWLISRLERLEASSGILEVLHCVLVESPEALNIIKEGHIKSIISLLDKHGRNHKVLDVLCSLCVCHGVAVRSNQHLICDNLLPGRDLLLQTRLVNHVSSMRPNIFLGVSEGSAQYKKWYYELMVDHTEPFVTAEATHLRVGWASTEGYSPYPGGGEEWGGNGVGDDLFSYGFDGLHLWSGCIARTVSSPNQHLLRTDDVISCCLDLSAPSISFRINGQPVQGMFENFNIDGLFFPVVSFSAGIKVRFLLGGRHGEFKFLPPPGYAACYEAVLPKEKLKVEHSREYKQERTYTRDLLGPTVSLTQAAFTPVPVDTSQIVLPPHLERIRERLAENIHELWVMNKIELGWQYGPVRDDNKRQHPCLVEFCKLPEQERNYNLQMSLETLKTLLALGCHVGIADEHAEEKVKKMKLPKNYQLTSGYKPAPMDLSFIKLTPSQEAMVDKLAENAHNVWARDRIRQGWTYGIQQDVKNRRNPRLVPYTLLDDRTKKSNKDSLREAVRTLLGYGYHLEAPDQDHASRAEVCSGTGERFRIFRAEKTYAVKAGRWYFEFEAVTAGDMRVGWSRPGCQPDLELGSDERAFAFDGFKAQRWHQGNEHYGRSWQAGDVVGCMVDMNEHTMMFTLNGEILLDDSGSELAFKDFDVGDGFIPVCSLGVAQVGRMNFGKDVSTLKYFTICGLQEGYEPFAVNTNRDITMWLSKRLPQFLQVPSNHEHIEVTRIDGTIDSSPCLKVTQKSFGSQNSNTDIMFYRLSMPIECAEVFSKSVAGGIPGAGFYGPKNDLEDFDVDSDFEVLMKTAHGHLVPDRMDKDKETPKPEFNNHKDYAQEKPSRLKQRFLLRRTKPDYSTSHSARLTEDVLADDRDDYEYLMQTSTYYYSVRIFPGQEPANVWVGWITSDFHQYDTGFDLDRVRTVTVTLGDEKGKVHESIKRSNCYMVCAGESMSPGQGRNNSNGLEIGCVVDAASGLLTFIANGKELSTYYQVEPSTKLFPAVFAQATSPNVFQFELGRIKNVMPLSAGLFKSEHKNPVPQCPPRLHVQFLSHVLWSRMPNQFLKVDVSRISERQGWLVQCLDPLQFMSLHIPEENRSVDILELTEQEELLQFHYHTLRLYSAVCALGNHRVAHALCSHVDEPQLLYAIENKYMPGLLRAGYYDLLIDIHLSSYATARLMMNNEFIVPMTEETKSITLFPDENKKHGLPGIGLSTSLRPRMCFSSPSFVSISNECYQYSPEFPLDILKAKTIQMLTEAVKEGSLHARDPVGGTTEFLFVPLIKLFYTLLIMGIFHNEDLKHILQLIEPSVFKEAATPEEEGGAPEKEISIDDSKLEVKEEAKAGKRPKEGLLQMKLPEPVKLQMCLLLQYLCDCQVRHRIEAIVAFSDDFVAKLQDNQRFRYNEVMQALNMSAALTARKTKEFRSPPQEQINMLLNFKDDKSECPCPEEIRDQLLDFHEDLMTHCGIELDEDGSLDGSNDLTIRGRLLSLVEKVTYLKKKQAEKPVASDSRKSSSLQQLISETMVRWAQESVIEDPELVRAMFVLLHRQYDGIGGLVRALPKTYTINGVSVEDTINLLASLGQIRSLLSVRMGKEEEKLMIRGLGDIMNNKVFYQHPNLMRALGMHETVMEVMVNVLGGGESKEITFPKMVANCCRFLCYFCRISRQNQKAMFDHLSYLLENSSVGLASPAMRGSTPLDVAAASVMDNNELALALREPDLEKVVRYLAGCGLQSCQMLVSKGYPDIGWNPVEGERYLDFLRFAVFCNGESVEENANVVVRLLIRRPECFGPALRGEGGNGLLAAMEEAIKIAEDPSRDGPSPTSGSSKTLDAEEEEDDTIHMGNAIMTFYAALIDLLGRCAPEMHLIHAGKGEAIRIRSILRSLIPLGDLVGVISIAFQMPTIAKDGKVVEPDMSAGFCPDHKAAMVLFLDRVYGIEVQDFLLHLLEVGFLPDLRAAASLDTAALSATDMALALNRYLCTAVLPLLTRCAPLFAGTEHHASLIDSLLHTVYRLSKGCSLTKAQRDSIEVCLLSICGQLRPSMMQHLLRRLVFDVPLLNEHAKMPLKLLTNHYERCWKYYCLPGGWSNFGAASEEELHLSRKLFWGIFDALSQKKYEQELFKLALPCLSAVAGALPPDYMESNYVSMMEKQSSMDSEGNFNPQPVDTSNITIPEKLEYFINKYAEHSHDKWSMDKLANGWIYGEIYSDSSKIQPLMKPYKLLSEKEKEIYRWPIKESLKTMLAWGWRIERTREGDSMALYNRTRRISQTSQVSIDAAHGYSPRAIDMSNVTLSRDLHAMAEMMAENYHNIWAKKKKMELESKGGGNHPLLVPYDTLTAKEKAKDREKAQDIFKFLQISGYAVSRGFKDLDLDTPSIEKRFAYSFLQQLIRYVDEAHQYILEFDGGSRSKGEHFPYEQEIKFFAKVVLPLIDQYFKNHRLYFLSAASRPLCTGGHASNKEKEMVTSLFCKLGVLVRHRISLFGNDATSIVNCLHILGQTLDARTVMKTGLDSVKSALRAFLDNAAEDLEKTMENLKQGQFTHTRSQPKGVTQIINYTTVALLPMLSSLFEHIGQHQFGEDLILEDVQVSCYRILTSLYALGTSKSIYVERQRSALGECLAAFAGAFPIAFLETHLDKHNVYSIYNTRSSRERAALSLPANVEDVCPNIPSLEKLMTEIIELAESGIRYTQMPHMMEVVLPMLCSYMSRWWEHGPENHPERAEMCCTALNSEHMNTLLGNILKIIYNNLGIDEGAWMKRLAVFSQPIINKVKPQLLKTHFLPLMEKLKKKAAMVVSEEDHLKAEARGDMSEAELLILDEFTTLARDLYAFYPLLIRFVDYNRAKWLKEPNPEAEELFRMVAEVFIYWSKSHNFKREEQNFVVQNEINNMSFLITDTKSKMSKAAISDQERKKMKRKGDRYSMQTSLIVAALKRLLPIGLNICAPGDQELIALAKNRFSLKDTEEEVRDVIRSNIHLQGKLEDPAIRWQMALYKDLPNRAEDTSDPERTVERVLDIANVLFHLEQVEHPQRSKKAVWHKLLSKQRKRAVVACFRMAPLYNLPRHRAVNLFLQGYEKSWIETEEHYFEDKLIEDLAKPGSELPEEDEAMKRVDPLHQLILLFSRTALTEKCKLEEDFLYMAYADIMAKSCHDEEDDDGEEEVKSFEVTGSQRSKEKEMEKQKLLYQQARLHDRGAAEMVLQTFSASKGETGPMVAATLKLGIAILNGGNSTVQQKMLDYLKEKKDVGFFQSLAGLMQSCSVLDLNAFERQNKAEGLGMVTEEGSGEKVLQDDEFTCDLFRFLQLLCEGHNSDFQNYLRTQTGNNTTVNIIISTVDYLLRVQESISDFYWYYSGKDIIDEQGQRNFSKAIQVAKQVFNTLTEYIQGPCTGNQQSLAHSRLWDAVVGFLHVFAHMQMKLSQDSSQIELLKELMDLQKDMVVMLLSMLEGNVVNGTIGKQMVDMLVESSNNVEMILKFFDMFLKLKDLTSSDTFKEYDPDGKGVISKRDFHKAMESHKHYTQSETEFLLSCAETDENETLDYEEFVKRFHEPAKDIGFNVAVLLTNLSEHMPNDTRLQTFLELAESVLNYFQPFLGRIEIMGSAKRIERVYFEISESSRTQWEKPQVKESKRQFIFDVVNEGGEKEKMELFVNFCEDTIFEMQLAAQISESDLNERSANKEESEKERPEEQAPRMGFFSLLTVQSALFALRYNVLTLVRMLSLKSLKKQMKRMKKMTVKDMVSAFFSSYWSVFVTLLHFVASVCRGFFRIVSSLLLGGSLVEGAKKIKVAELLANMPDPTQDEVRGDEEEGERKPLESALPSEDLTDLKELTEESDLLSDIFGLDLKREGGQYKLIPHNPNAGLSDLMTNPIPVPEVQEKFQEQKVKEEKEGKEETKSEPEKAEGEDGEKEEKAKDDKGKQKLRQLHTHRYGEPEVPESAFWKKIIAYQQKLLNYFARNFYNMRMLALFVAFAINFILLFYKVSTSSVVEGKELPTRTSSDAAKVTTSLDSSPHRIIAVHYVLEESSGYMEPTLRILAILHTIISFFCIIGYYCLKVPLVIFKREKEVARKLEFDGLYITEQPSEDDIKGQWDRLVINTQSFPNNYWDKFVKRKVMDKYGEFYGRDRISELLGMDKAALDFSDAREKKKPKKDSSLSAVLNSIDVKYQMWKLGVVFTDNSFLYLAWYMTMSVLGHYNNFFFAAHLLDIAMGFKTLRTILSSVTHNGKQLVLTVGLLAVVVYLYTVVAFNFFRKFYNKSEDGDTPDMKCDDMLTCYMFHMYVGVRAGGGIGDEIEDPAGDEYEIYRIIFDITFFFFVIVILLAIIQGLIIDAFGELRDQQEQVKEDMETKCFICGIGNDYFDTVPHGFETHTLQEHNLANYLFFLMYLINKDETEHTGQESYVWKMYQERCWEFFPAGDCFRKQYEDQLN

Broadly, the Kd is the equilibrium constant for the complex coming apart. Read a low Kd as higher affinity. In the case of “DPc10 labeled with 5-carboxyfluorescein at its N-terminus (F-DPc10) (peptide)”, in assay [1], the dissociation constant Kd stood at 480 nM and the stoichiometry N (DPc10 per RyR2 monomer) is 1. Further, in assay [2], the fold faster association after pre-saturation with NF-DPc10 against control is 2 fold and the percent faster τ (wash-in) with ryanodine plus caffeine against control was found to be 21%.
As to “DPc10 labeled with HiLyte Fluor 647 on the N-terminus (HF647-DPc10) (peptide)”, the equilibrium dissociation constant (Kd) in assay [3] worked out at 610 nM; in assay [4], 450 nM.
